# Tested on: MS2 coat protein
# Test: apparent KD of MS2 coat protein; higher = weaker reporter binding
# Conditions: Eterna round: R107
# Procedure: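 RNA-MaP round R107: designed RNA switches with theophylline, tryptophan, arginine or FMN aptamers are transcribed on-chip within common flanks. They are titrated with SNAP-549-labelled MS2 coat protein in RNA-MaP buffer (100 mM Tris pH 7.5, 80 mM KCl, 4 mM MgCl2), without ligand or with the indicated ligand. Median apparent KD per design.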
# [1] = input ligand: theophylline 20 uM
# [2] = input ligand: theophylline 2 mM
# [3] = input ligand: tryptophan 2.4 mM
Sequence,apparent KD of MS2 coat protein (input ligand: arginine 13.2 mM),apparent KD of MS2 coat protein (input ligand: none),apparent KD of MS2 coat protein [1],apparent KD of MS2 coat protein [2],apparent KD of MS2 coat protein [3]
ACAUUUAACUGAAGGAGCGUGAAUAACAUGAGGAUCACCCAUGUAACUUAGAUGCUUAUUUCACAGGUAGGUCGCAGACUAAUGA [JR_ExcArginiB_Sub010],10.4 nM,10.3 nM,13.7 nM,10.3 nM,10.9 nM
AACACACCAAAUGAUACCAGCUACAACAUGAUACAAAACCACAUGAGGAUCACCCAUGUAAGCCCUUGGCAGCAUACUACUGUAA [theeternabot_exclusion_MS2_Theo_B_40],16.9 nM,,24.2 nM,,18.7 nM
AGAUUCGACACGGCCGCCACUCGUGGAGGAUUUCCGAGUGUCGAACAUGAGGAUCACCCAUGUACGAGGACCGGGUGUUGAGUCU [XTryp B #14],21.1 nM,,43.4 nM,32.2 nM,
GUACAUGAGGAUCACCCAUGUGGUAGGGAUACCAGCCAGAAGAAAGGCCCUUGGCAGCUUGUAUUUAGUGUGGGUUUGUUUGUUC [Exclusion - Theophylline A],29 nM,,40.3 nM,,25.6 nM
CCCAGUUAUAUCAAAGGAAUUAUACUCGAAGGAGCGUCAUAGUAGGCAGGUAGGUCGCGAGACAUGAGGAUCACCCAUGUAGAGA [pxpmullin],37.6 nM,51.6 nM,58.4 nM,34.5 nM,30.4 nM
UCGGGCAGAGCGGCCGCCACUGUAUGGCGUGCGGAUGACGGAACAUGAGGAUCACCCAUGUUGUUUAGGACCGGGCUUGCCGCGA [cocmullin],14 nM,,14.7 nM,11.5 nM,
AGCACUGUGACGGCCGCCACUACAUAACAUGGGUGGUCAGGUUCAUUACAUGAGGAUCACCCAUGUAGGACCGGGUCUCAGUGCA [Omei Trp Exc B A v11],12.1 nM,,17.7 nM,12.6 nM,
AAUACCGGUCCUCGAAGCAUGGGUGAUCAACGAGGACCGGUACGGCCGCCACUCGAUAACAUGAGGAUCACCCAUGUAAUAAUAA [|T'-M'-Trp-Ms2|_Design5],34.4 nM,313 nM,395 nM,552 nM,569 nM
GGCACACAUGAGGAUCACCCAUGUGGCGAUACCAGUUGAUGGUAAAACCCUUGGCAGCGCCAGUCACAUGCAGAUAGUUACUGAA [theeternabot_sameState_MS2_Theo_A_32],14.2 nM,,19.4 nM,,15.8 nM
AAAAGUAGGUCCAAUAAAACUACAUGUGAAGGAGCGCGCGAAAGCGCAGGUAGGUCGCACAUGAGGAUCACCCAUGUCCUACAAA [MAT - Exclusion Arginine A - Mod of Eli - D6],39.8 nM,47.3 nM,77.2 nM,65.7 nM,39.8 nM
GCAUCCUAGUCGGCCGCCACUGCAUGUUGGCAGUGCUGCAACAUACAUGAGGAUCACCCAUGUUGCAGGACCGGGACUAGGAUGC [(Trp1)-(MT2)''-(T1)'-(MT2)'-(Ms2)-(Trp2)_Design1],23.8 nM,24.3 nM,28.7 nM,25.2 nM,22.8 nM
CCCAACAUGAGGAUCACCCAUGUUCCGGGUCGAGGACCGGUACGGCCGCCACUCGGUAUGAUGGGUGUGCAGCGUAUCUGCACCA [theeternabot_sameState_MS2_Trp_A_22],30.9 nM,,61.1 nM,68.4 nM,
AUGUGCAAUACGGAUACCAGCCCGUGUAGAUACAUGAGGAUCACCCAUGUCAAUGUAAAUGGCCCUUGGCAGCCGUUUGGGAGGC [theeternabot_sameState_MS2_Theo_B_35],13.4 nM,,19.9 nM,,19.4 nM
AGCUCGACUCGCAGCUGGAUGCCCGCUUGCCGAGGACCGGUACGGCCGCCACUCGUCACUCGACAUGAGGAUCACCCAUGUGAUA [theeternabot_exclusion_MS2_Trp_A_32],36.3 nM,,136 nM,140 nM,
AAUAAGCAGCUGCAAGGUGAUCCUGCAGAUACCAGCUAGGAAACUAGCCCUUGGCAGCUGCAACAUGAGGAUCACCCAUGUAAUA [(T)'-(M)'-(T1)-(T2)-(M1)-(M2)_Design6],26.2 nM,,61.7 nM,,30.7 nM
CAAAAUGCGGCGGCCGCCACUCAGCUCCGUGUGGUUGGUCAUCUUAACAUGAGGAUCACCCAUGUGAGGACCGGGCCAGCGAGUG [theeternabot_exclusion_MS2_Trp_B_38],13.3 nM,,19.6 nM,17 nM,
GAUAUGGAAACAUGUCAGAUCCUUACCGGUCGAGGACCGGUACGGCCGCCACUCGCAAAUAUUGUACAUGAGGAUCACCCAUGUA [Ex Tryptophan A 17],13.2 nM,,15.4 nM,13.6 nM,
GGGCAAGGUGCCGCCUUCGCCCACUGAGAAGGAGCGCAGGGUACUGCAGGUAGGUCGCUCAGACAUGAGGAUCACCCAUGUAGGA [Esislees],32.4 nM,54.5 nM,89.9 nM,76 nM,57.6 nM
CCUAUCCAGUCGGCCGCCACUGAAAACAGUGGGUGAACAUGAGGAUCACCCAUGUAGGAUUUCCACAGGACCGGGACUGUAUAGG [Ex Tryptophan B 24],79.4 nM,933 nM,1300 nM,1230 nM,223 nM
GGUCGCCAACAUGGGUCGGUGAAAUGGGAAGGAGCGAGCGAGAGCUCAGGUAGGUCGCCCAAACAUGAGGAUCACCCAUGUAAUA [SSArg-A #28 UUU adds V2],21 nM,125 nM,113 nM,74.8 nM,53.4 nM
UUAUAUAUGCGAAGGAGCGGGAAAUAUAUAUAUAUAAUCCUAACAUGAGGAUCACCCAUGUCCCAGGUAGGUCGCGCAUAUAUGG [12.E],74.2 nM,84.4 nM,76.8 nM,95.1 nM,75.7 nM
UGAUAUGUAGGAAGGAGCGCAUACUUCACAUGAGGAUCACCCAUGUCAAGACGUGAGUCAGUGCAGGUAGGUCGCCUAGUUAUGA [Same State - Arginine B (Freestyle 20)],30.2 nM,44.9 nM,41 nM,36.9 nM,36 nM
GAGGACAUGAGGAUCACCCAUGUAAAUGAUACCAGUUGAGAGAGAGGCCCUUGGCAGCGUAAACAUGACAGCGAGCGAGAGUGCG [ss-theoA-0],16.3 nM,13.1 nM,19.2 nM,15.3 nM,14.6 nM
GCAUGUUGGUGGUUUCUGCGAAGGCGGAAUCGAGGACCGGUACGGCCGCCACUCGGCGACAUGAGGAUCACCCAUGUGGUUAGGA [Exclusion - Tryptophan A (Freestyle 9)],42.1 nM,462 nM,220 nM,461 nM,208 nM
GCCUAGCAUCGAAGGAGCGGGCAUUACGCGCGAAAGCGCGAUACUUGAGGAACACCCAAGUCCCAGGUAGGUCGCGAUGCUAGGC [SSAB Alternative Aptamer #3 NP+V+V2],31.4 nM,70.9 nM,127 nM,94.9 nM,83.5 nM
GGAUAGGACACGGCCGCCACUAGCUAGGAUACUAGCAACAUUUCCUCAGAUGAGGAUCACCCAUCUAGGACCGGGUGUCCUAUCG,25.7 nM,26 nM,36.5 nM,33.6 nM,84.4 nM
GGGUGUGAUCCGGAUACCAGCGAACAUGAGGAUCACCCAUGUGACCUGAGAUCGGCUCUACGCCCUUGGCAGCCGCGGUCGCAGG [Same State Theophylline B GF13],23 nM,,19.5 nM,15.4 nM,12.4 nM
GGGUCGCGUUCGGCCGCCACUUGGAAACAUGAGGAUCACCCAUGUCAUAUGGUGGGACAUGUUGUAAGGACCGGGAACCGUCCUA [theeternabot_exclusion_MS2_Trp_B_11],34.6 nM,,82.1 nM,83.4 nM,
GGGCCCGGGCCGGAAACGGCCCGGGCCCUGCGAGGACCGGUACGGCCGCCACUCGCUCGAGUGGGUACAUGAGGAUCACCCAUGU [#17 Exclusion Tryptophan A],17.7 nM,28.4 nM,45.8 nM,33.3 nM,31.9 nM

# Reference: the supplement of paper PMC9170038
